biological target: ubc4_yeast UBC4 (UniProt P15731)
Sequence (P15731 whole entry): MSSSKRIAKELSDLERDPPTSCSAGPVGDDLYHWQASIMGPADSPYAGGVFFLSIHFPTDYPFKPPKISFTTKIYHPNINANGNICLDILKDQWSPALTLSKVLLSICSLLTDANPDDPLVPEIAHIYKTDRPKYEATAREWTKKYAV

Substance | effect of a mutation on the interaction
E3 ubiquitin-protein ligase RSP5 (Saccharomyces cerevisiae), P39940 D614M | decreasing interaction strength
E3 ubiquitin-protein ligase RSP5 (Saccharomyces cerevisiae), P39940 L607M | decreasing interaction strength
E3 ubiquitin-protein ligase RSP5 (Saccharomyces cerevisiae), P39940 S594M | decreasing interaction strength
E3 ubiquitin-protein ligase RSP5 (Saccharomyces cerevisiae), P39940 W597M | disrupting interaction strength
E3 ubiquitin-protein ligase RSP5 (Saccharomyces cerevisiae), P39940 Y647M | decreasing interaction strength
